Measurements from patent US20230406951A1 (Pfizer, published 2023).
Where a chain is given by its changes, count along the chain named.

T1: human TNFR2 (human, UniProt P20333 23-461)
T1 construct: expressed on the surface of CHO cells; also called HuTNFR2; TNFRSF1B
T1 sequence: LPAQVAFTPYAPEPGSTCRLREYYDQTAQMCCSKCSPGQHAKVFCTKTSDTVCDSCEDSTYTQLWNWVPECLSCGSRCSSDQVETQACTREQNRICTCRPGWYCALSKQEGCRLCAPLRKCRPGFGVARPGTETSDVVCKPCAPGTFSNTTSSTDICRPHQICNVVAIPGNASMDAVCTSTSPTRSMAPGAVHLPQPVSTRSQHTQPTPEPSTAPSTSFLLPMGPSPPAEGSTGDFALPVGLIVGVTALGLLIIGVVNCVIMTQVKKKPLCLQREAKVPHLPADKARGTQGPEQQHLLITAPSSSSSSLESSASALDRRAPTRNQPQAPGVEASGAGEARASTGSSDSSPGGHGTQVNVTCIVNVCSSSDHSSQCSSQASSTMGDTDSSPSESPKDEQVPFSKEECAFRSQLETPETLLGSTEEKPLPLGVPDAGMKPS

B1: IgG 1918 (antibody, name in Kabat numbering, V domains shown)
VH: QVQLVQSGAEVKKPGASVKVSCKVSGFSFPSSGVDWVRQAPGQGLEWLGVTRGEGSTHYNQKFQGRVTITKDTSKSTVYMELSSLRSEDTAVYYCASGEWDEGFVYWGQGTLVTVSS
VL: DIQLTQSPSFLSASVGDRVTITCKASQNVGTAVAWYQQKPGKAPKLLIYAASTLQSGVPSRFSGSGSGTEFTLTISSLQPEDFATYYCQQYNSYPFGGGTKVEIKR
notes: IgG
B2: IgG 1991 (antibody, name in Kabat numbering, V domains shown)
VH: B1 VH with R52H, E54S, W100R
VL: B1 VL
notes: IgG
B3: IgG 2002 (antibody, name in Kabat numbering, V domains shown)
VH: B1 VH with R52F, G53Q, W100H
VL: B1 VL with N92Y, Y94T
notes: IgG
B4: IgG 1934 (antibody, name in Kabat numbering, V domains shown)
VH: B1 VH with R52W, E54V, W100Q
VL: B1 VL with N92Y, Y94T
notes: IgG
B5: IgG 1925 (antibody, name in Kabat numbering, V domains shown)
VH: B1 VH with R52W, E54V, W100Q
VL: B1 VL
notes: IgG
B6: IgG 1927 (antibody, name in Kabat numbering, V domains shown)
VH: B1 VH
VL: B1 VL with N92Y, Y94T
notes: IgG
B7: IgG 1979 (antibody, name in Kabat numbering, V domains shown)
VH: B1 VH with W100R
VL: B1 VL
notes: IgG
B8: IgG 1978 (antibody, name in Kabat numbering, V domains shown)
VH: B1 VH with W100H
VL: B1 VL
notes: IgG
B9: IgG 1926 (antibody, name in Kabat numbering, V domains shown)
VH: B1 VH with R52K, E54Q
VL: B1 VL with N92Y, Y94T
notes: IgG
B10: IgG 1933 (antibody, name in Kabat numbering, V domains shown)
VH: B1 VH with R52W, E54V, W100R
VL: B1 VL with N92Y, Y94T
notes: IgG
B11: IgG 1932 (antibody, name in Kabat numbering, V domains shown)
VH: B1 VH with R52W, E54V, W100H
VL: B1 VL with N92Y, Y94T
notes: IgG
B12: IgG 1987 (antibody, name in Kabat numbering, V domains shown)
VH: B1 VH with R52L, E54H, W100R
VL: B1 VL
notes: IgG
B13: IgG 1989 (antibody, name in Kabat numbering, V domains shown)
VH: B1 VH with R52H, E54S, W100S, D101T
VL: B1 VL
notes: IgG
B14: IgG 1973 (antibody, name in Kabat numbering, V domains shown)
VH: B1 VH with R52K, E54Q, W100S, D101T
VL: B1 VL
notes: IgG
B15: IgG 1922 (antibody, name in Kabat numbering, V domains shown)
VH: B1 VH with R52W, E54V, W100S, D101T
VL: B1 VL
notes: IgG
B16: IgG 2202 (antibody, name in Kabat numbering, V domains shown)
VH: B1 VH with R52W, E54V
VL: B1 VL
notes: IgG
B17: IgG 1931 (antibody, name in Kabat numbering, V domains shown)
VH: B1 VH with R52W, E54V, W100S, D101T
VL: B1 VL with N92Y, Y94T
notes: IgG
B18: IgG 1997 (antibody, name in Kabat numbering, V domains shown)
VH: B1 VH with W100S, D101T
VL: B1 VL with N92Y, Y94T
notes: IgG
B19: IgG 1924 (antibody, name in Kabat numbering, V domains shown)
VH: B1 VH with R52W, E54V, W100R
VL: B1 VL
notes: IgG
B20: IgG 1982 (antibody, name in Kabat numbering, V domains shown)
VH: B1 VH with R52F, G53Q, W100H
VL: B1 VL
notes: IgG
B21: IgG 1977 (antibody, name in Kabat numbering, V domains shown)
VH: B1 VH with W100S, D101T
VL: B1 VL
notes: IgG
B22: IgG 1990 (antibody, name in Kabat numbering, V domains shown)
VH: B1 VH with R52H, E54S, W100H
VL: B1 VL
notes: IgG
B23: IgG 1921 (antibody, name in Kabat numbering, V domains shown)
VH: B1 VH with R52H, E54S
VL: B1 VL
notes: IgG
B24: IgG 2203 (antibody, name in Kabat numbering, V domains shown)
VH: B1 VH with R52W, E54V
VL: B1 VL with N92Y, Y94T
notes: IgG
B25: IgG 1980 (antibody, name in Kabat numbering, V domains shown)
VH: B1 VH with W100Q
VL: B1 VL
notes: IgG
B26: TetraFab 2182 (antibody)
heavy: QVQLVQSGAEVKKPGASVKVSCKVSGFSFPSSGVDWVRQAPGQGLEWLGVTKGQGSTHYNQKFQGRVTITKDTSKSTVYMELSSLRSEDTAVYYCASGEQDEGFVYWGQGTLVTVSSASTKGPSVFPLAPSSKSTSGGTAALGCLVKDYFPEPVTVSWNSGALTSGVHTFPAVLQSSGLYSLSSVVTVPSSSLGTQTYICNVNHKPSNTKVDKKVEPKSCGGGGSQVQLVQSGAEVKKPGASVKVSCKVSGFSFPSSGVDWVRQAPGQGLEWLGVTKGQGSTHYNQKFQGRVTITKDTSKSTVYMELSSLRSEDTAVYYCASGEQDEGFVYWGQGTLVTVSSASTKGPSVFPLAPSSKSTSGGTAALGCLVKDYFPEPVTVSWNSGALTSGVHTFPAVLQSSGLYSLSSVVTVPSSSLGTQTYICNVNHKPSNTKVDKKVEPKSCDKTHTCPPCPAPEAAGAPSVFLFPPKPKDTLMISRTPEVTCVVVDVSHEDPEVKFNWYVDGVEVHNAKTKPREEQYNSTYRVVSVLTVLHQDWLNGKEYKCKVSNKALPAPIEKTISKAKGQPREPQVYTLPPSREEMTKNQVSLTCLVKGFYPSDIAVEWESNGQPENNYKTTPPVLDSDGSFFLYSKLTVDKSRWQQGNVFSCSVMHEALHNHYTQKSLSLSPGK
light: DIQLTQSPSFLSASVGDRVTITCKASQNVGTAVAWYQQKPGKAPKLLIYAASTLQSGVPSRFSGSGSGTEFTLTISSLQPEDFATYYCLQYSSYPLTFGGGTKVEIKRTVAAPSVFIFPPSDEQLKSGTASVVCLLNNFYPREAKVQWKVDNALQSGNSQESVTEQDSKDSTYSLSSTLTLSKADYEKHKVYACEVTHQGLSSPVTKSFNRGEC
notes: TetraFab
B27: TetraFab 2084 (antibody)
heavy: B26 heavy with K52R, Q54E, Q100W, K277R, Q279E, Q325W
light: DIQLTQSPSFLSASVGDRVTITCKASQNVGTAVAWYQQKPGKAPKLLIYAASTLQSGVPSRFSGSGSGTEFTLTISSLQPEDFATYYCQQYNSYPFGGGTKVEIKRTVAAPSVFIFPPSDEQLKSGTASVVCLLNNFYPREAKVQWKVDNALQSGNSQESVTEQDSKDSTYSLSSTLTLSKADYEKHKVYACEVTHQGLSSPVTKSFNRGEC
notes: TetraFab
B28: TetraFab 2191 (antibody)
heavy: B26 heavy with K52L, Q54H, Q100S, D101T, K277L, Q279H, Q325S, D326T
light: B26 light
notes: TetraFab
B29: TetraFab 2087 (antibody)
heavy: B26 heavy with K52H, Q54S, Q100W, K277H, Q279S, Q325W
light: B27 light
notes: TetraFab
B30: TetraFab 2192 (antibody)
heavy: B26 heavy with K52L, Q54H, Q100H, K277L, Q279H, Q325H
light: B26 light
notes: TetraFab
B31: TetraFab 2185 (antibody)
heavy: B26 heavy with K52R, Q54E, Q100R, K277R, Q279E, Q325R
light: B26 light
notes: TetraFab

Molecular target: T1, human TNFR2
Assay: binding to human TNFR2 CHO cells

binding result | Binder
no binding | B1
no binding | B2
no binding | B3
no binding | B4
no binding | B5
no binding | B6
no binding | B7
no binding | B8
no binding | B9
no binding | B10
no binding | B11
no binding | B12
no binding | B13
no binding | B14
no binding | B15
no binding | B16

binding result | Binder
no binding | B17
no binding | B18
no binding | B19
no binding | B20
no binding | B21
no binding | B22
no binding | B23
no binding | B24
no binding | B25
no binding | B26
no binding | B27
no binding | B28
no binding | B29
no binding | B30
no binding | B31
